Measurements from patent US20090292003A1.

Molecular target: short 17-residues peptide (cargo titrated against CADY-2)
Assay: steady state Trp fluorescence quenching, fixed CADY (0.1 uM) titrated with cargo peptide in PBS, quadratic fit

B1: CADY-2 (Ac-…-Cya) (peptide)
peptide: GLWRALWRALWRSLWKLKWKV
HELM: PEPTIDE1{[ac].G.L.W.R.A.L.W.R.A.L.W.R.S.L.W.K.L.K.W.K.V.[SCCN[*:1]]}$$$$V2.0
SMILES: CC(=O)NCC(=O)N[C@@H](CC(C)C)C(=O)N[C@@H](Cc1c[nH]c2ccccc12)C(=O)N[C@@H](CCCNC(=N)N)C(=O)N[C@@H](C)C(=O)N[C@@H](CC(C)C)C(=O)N[C@@H](Cc1c[nH]c2ccccc12)C(=O)N[C@@H](CCCNC(=N)N)C(=O)N[C@@H](C)C(=O)N[C@@H](CC(C)C)C(=O)N[C@@H](Cc1c[nH]c2ccccc12)C(=O)N[C@@H](CCCNC(=N)N)C(=O)N[C@@H](CO)C(=O)N[C@@H](CC(C)C)C(=O)N[C@@H](Cc1c[nH]c2ccccc12)C(=O)N[C@@H](CCCCN)C(=O)N[C@@H](CC(C)C)C(=O)N[C@@H](CCCCN)C(=O)N[C@@H](Cc1c[nH]c2ccccc12)C(=O)N[C@@H](CCCCN)C(=O)N[C@H](C(=O)NCCS)C(C)C
Kd: 19 nM
